Test results reported in the supplement of paper PMC5998384.

Assays:
HeLa Kyoto [1] = assay: thermal stability score vs G1/S (z-score of summed log2 fold changes over temperatures); higher = more thermally stable than in G1/S
HeLa Kyoto [2] = assay: melting temperature (median over replicates), in situ; higher = more thermally stable
HeLa Kyoto [3] = assay: solubility change mitosis vs G1/S (difference of NP-40 vs SDS log2 ratios) (log2 ratio difference); higher = more soluble in mitosis
HeLa Kyoto [4] = assay: solubility in G1/S (NP-40 vs SDS abundance) (log2 ratio); higher = more soluble; settings: cell cycle stage: G1/S
[5] = cell cycle stage: early G1 (4.5 h after nocodazole release)
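Wherever melting temperature (median over replicates), in situ is given: HeLa Kyoto cells synchronized by double thymidine or nocodazole block, proteins quantified by TMT10plex mass spectrometry, three independent biological replicates.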
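Wherever solubility change mitosis vs G1/S (difference of NP-40 vs SDS log2 ratios) is given: synchronized HeLa Kyoto cells (double thymidine block for G1/S, nocodazole release for mitosis), protein amounts in NP-40 versus SDS lysates quantified by mass spectrometry, three biological replicates.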
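Wherever solubility in G1/S (NP-40 vs SDS abundance) is given: HeLa Kyoto cells arrested at G1/S by double thymidine block, proteins quantified by TMT10plex mass spectrometry in mild NP-40 versus SDS extracts, three biological replicates.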
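Wherever thermal stability score vs G1/S (z-score of summed log2 fold changes over temperatures) is given: synchronized HeLa Kyoto cells, proteins quantified by TMT10plex mass spectrometry, three biological replicates, mitosis taken 0.5 h after nocodazole release, G1/S directly after double thymidine block.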

## MAFLRSMWGVLSALGRSGAELCTGCGSRLRSPFSFVYLPRWFSSVLASCPKKPVSSYLRFSKEQLPIFKAQNPDAKTTELIRRIAQRWRELPDSKKKIYQDAYRAEWQVYKEEISRFKEQLTPSQIMSLEKEIMDKHLKRKAMTKKKELTLLGKPKRPRSAYNVYVAERFQEAKGDSPQEKLKTVKENWKNLSDSEKELYIQHAKEDETRYHNEMKSWEEQMIEVGRKDLLRRTIKKQRKYGAEEC [TFAM]
HeLa Kyoto [1]; [5]
  thermal stability score: -1.96
HeLa Kyoto [1]; cell cycle stage: mitosis
  thermal stability score: -1.16
HeLa Kyoto [2]; cell cycle stage: G1/S
  melting temperature: 53.1 °C
HeLa Kyoto [2]; cell cycle stage: mitosis
  melting temperature: 53 °C
HeLa Kyoto [3]
  solubility change mitosis (log2): 0.546
HeLa Kyoto [4]
  solubility in G1/S (log2): 0.578

## MAFRQALQLAACGLAGGSAAVLFSAVAVGKPRAGGDAEPRPAEPPAWAGGARPGPGVWDPNWDRREPLSLINVRKRNVESGEEELASKLDHYKAKATRHIFLIRHSQYHVDGSLEKDRTLTPLGREQAELTGLRLASLGLKFNKIVHSSMTRAIETTDIISRHLPGVCKVSTDLLREGAPIEPDPPVSHWKPEAVQYYEDGARIEAAFRNYIHRADARQEEDSYEIFICHANVIRYIVCRALQFPPEGWLRLSLNNGSITHLVIRPNGRVALRTLGDTGFMPPDKITRS [PGAM5]
HeLa Kyoto [1]; [5]
  thermal stability score: 1.94
HeLa Kyoto [1]; cell cycle stage: mitosis
  thermal stability score: -3.72
HeLa Kyoto [2]; cell cycle stage: G1/S
  melting temperature: 52.8 °C
HeLa Kyoto [2]; cell cycle stage: mitosis
  melting temperature: 52.2 °C
HeLa Kyoto [3]
  solubility change mitosis (log2): 0.121
HeLa Kyoto [4]
  solubility in G1/S (log2): -0.0731

## MAFVTRQFMRSVSSSSTASASAKKIIVKHVTVIGGGLMGAGIAQVAAATGHTVVLVDQTEDILAKSKKGIEESLRKVAKKKFAENLKAGDEFVEKTLSTIATSTDAASVVHSTDLVVEAIVENLKVKNELFKRLDKFAAEHTIFASNTSSLQITSIANATTRQDRFAGLHFFNPVPVMKLVEVIKTPMTSQKTFESLVDFSKALGKHPVSCKDTPGFIVNRLLVPYLMEAIRLYERGDASKEDIDTAMKLGAGYPMGPFELLDYVGLDTTKFIVDGWHEMDAENPLHQPSPSLNKLVAENKFGKKTGEGFYKYK [HADH]
HeLa Kyoto [1]; [5]
  thermal stability score: -2.07
HeLa Kyoto [1]; cell cycle stage: mitosis
  thermal stability score: -1.2
HeLa Kyoto [2]; cell cycle stage: G1/S
  melting temperature: 53.4 °C
HeLa Kyoto [2]; cell cycle stage: mitosis
  melting temperature: 53.7 °C
HeLa Kyoto [3]
  solubility change mitosis (log2): 0.00527
HeLa Kyoto [4]
  solubility in G1/S (log2): 0.267

## MAGAAAESGRELWTFAGSRDPSAPRLAYGYGPGSLRELRAREFSRLAGTVYLDHAGATLFSQSQLESFTSDLMENTYGNPHSQNISSKLTHDTVEQVRYRILAHFHTTAEDYTVIFTAGSTAALKLVAEAFPWVSQGPESSGSRFCYLTDSHTSVVGMRNVTMAINVISTPVRPEDLWSAEERSASASNPDCQLPHLFCYPAQSNFSGVRYPLSWIEEVKSGRLHPVSTPGKWFVLLDAASYVSTSPLDLSAHQADFVPISFYKIFGFPTGLGALLVHNRAAPLLRKTYFGGGTASAYLAGEDFYIPRQSVAQRFEDGTISFLDVIALKHGFDTLERLTGGMENIKQHTFTLAQYTYVALSSLQYPNGAPVVRIYSDSEFSSPEVQGPIINFNVLDDKGNIIGYSQVDKMASLYNIHLRTGCFCNTGACQRHLGISNEMVRKHFQAGHVCGDNMDLIDGQPTGSVRISFGYMSTLDDVQAFLRFIIDTRLHSSGDWPVPQAHADTGETGAPSADSQADVIPAVMGRRSLSPQEDALTGSRVWNNSSTVNAVPVAPPVCDVARTQPTPSEKAAGVLEGALGPHVVTNLYLYPIKSCAAFEVTRWPVGNQGLLYDRSWMVVNHNGVCLSQKQEPRLCLIQPFIDLRQRIMVIKAKGMEPIEVPLEENSERTQIRQSRVCADRVSTYDCGEKISSWLSTFFGRPCHLIKQSSNSQRNAKKKHGKDQLPGTMATLSLVNEAQYLLINTSSILELHRQLNTSDENGKEELFSLKDLSLRFRANIIINGKRAFEEEKWDEISIGSLRFQVLGPCHRCQMICIDQQTGQRNQHVFQKLSESRETKVNFGMYLMHASLDLSSPCFLSVGSQVLPVLKENVEGHDLPASEKHQDVTS [MOCOS]
HeLa Kyoto [1]; [5]
  thermal stability score: -1.28
HeLa Kyoto [1]; cell cycle stage: mitosis
  thermal stability score: -1.96
HeLa Kyoto [2]; cell cycle stage: G1/S
  melting temperature: 53.3 °C
HeLa Kyoto [2]; cell cycle stage: mitosis
  melting temperature: 53.6 °C
HeLa Kyoto [3]
  solubility change mitosis (log2): -0.13
HeLa Kyoto [4]
  solubility in G1/S (log2): -0.123

## MAGAATQASLESAPRIMRLVAECSRSRARAGELWLPHGTVATPVFMPVGTQATMKGITTEQLDALGCRICLGNTYHLGLRPGPELIQKANGLHGFMNWPHNLLTDSGGFQMVSLVSLSEVTEEGVRFRSPYDGNETLLSPEKSVQIQNALGSDIIMQLDDVVSSTVTGPRVEEAMYRSIRWLDRCIAAHQRPDKQNLFAIIQGGLDADLRATCLEEMTKRDVPGFAIGGLSGGESKSQFWRMVALSTSRLPKDKPRYLMGVGYATDLVVCVALGCDMFDCVFPTRTARFGSALVPTGNLQLRKKVFEKDFGPIDPECTCPTCQKHSRAFLHALLHSDNTAALHHLTVHNIAYQLQLMSAVRTSIVEKRFPDFVRDFMGAMYGDPTLCPTWATDALASVGITLG [QTRT1]
HeLa Kyoto [1]; [5]
  thermal stability score: 1.96
HeLa Kyoto [1]; cell cycle stage: mitosis
  thermal stability score: 0.0564
HeLa Kyoto [2]; cell cycle stage: G1/S
  melting temperature: 55.6 °C
HeLa Kyoto [2]; cell cycle stage: mitosis
  melting temperature: 54.9 °C
HeLa Kyoto [3]
  solubility change mitosis (log2): -0.0923
HeLa Kyoto [4]
  solubility in G1/S (log2): 0.174
